# Measured values as given in patent publication US20240239878A1.
# Tests used:
# [1] = molecular target: Cynomolgus monkey DLL3 on HEK293 cells (HEK293-cyno DLL3) (Cynomolgus monkey); experiment: flow cytometry, HEK293-cyno DLL3 cells
# [2] = molecular target: human DLL3 on SHP-77 cells (human) (UniProt Q9NYJ7); experiment: flow cytometry, SHP-77 cells
# human DLL3 on SHP-77 cells (human), sequence (Q9NYJ7 27-618): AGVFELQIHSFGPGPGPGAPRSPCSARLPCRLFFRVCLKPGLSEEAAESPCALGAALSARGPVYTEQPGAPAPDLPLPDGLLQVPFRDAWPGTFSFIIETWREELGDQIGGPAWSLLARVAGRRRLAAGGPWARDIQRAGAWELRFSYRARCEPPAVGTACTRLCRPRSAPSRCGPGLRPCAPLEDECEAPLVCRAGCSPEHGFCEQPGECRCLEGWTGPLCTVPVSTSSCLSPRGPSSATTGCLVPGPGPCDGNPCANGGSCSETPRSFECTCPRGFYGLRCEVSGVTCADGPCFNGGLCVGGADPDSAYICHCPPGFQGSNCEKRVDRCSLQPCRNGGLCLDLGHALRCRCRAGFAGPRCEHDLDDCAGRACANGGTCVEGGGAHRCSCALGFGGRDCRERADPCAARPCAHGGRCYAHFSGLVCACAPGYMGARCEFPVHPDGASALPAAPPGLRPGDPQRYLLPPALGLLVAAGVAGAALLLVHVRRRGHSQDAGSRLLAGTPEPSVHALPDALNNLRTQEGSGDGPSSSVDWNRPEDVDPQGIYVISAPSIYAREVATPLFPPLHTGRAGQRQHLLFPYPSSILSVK
# Cynomolgus monkey DLL3 on HEK293 cells (HEK293-cyno DLL3) (Cynomolgus monkey), sequence (Q9NYJ7 other isoform, or with tags, fused parts or gaps): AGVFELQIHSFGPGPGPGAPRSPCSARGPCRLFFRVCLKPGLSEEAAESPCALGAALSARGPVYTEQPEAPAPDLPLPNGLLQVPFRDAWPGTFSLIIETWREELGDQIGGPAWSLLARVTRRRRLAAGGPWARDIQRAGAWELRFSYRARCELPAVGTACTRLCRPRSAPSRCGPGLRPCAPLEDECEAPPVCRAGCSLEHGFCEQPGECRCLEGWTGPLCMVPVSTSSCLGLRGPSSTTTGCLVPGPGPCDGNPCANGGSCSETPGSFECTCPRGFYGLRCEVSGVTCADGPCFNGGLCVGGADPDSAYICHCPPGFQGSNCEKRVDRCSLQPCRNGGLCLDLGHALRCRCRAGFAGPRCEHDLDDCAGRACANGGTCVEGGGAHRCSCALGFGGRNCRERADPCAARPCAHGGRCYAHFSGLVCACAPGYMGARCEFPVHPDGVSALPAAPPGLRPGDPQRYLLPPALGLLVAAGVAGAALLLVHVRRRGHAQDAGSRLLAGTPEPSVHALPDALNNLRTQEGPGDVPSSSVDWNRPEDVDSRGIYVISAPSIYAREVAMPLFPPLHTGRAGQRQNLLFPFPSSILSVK
substance,measurement,setting,value
Negative control antibody,Top MFI,[1],104 MFI
same,Top MFI,[2],92 MFI
